Each block holds one molecule with its values, some of them ahead of it. Bridge positions count the residues as written; N and C are the ends. Square brackets hold non-standard residues; d marks the D form. Primed or numbered codes have the meaning given here. Ends that are not written are not given here. MB = Monomer B = PyrS, Alloc-pyrrolidine stapling residue (allyl carbamate on pyrrolidine N); R8 = C=CCCCCCC[C@@](C)(N)C(=O)O; S5 = C=CCCC[C@](C)(N)C(=O)O; PEG1′ = not defined here
Experiments:
beta-catenin = biological target: T1, beta-catenin (Homo sapiens, UniProt P35222); details: reported in Grossmann et al.; cited from earlier work
T1 sequence (P35222 1-781): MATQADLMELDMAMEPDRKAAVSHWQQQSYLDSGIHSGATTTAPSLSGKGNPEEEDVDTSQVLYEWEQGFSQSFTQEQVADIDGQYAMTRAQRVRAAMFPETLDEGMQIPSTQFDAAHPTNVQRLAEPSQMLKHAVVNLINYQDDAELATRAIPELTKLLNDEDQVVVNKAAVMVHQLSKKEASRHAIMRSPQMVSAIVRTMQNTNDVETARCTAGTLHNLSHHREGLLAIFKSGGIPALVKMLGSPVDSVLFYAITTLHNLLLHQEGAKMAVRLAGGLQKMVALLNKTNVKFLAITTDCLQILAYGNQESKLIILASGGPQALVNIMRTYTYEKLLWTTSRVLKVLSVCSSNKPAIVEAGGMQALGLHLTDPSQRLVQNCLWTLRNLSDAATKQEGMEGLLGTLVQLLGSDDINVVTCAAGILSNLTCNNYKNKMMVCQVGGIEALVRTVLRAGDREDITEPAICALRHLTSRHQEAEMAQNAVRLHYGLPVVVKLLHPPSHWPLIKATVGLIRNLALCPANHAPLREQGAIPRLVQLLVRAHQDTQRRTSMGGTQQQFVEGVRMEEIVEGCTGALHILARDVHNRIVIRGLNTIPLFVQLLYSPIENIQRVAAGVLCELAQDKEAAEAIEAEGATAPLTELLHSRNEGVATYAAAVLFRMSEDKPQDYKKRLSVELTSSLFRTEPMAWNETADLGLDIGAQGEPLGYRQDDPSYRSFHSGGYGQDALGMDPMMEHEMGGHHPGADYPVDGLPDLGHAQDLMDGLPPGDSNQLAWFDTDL

full-length beta-catenin [1] = biological target: T2, full-length beta-catenin (UniProt P35222 2-781, limits assumed); experiment: competition FP; control of Table 5
T2 construct: mature; also called full-length ß-Catenin; β-catenin
T2 sequence (looked up): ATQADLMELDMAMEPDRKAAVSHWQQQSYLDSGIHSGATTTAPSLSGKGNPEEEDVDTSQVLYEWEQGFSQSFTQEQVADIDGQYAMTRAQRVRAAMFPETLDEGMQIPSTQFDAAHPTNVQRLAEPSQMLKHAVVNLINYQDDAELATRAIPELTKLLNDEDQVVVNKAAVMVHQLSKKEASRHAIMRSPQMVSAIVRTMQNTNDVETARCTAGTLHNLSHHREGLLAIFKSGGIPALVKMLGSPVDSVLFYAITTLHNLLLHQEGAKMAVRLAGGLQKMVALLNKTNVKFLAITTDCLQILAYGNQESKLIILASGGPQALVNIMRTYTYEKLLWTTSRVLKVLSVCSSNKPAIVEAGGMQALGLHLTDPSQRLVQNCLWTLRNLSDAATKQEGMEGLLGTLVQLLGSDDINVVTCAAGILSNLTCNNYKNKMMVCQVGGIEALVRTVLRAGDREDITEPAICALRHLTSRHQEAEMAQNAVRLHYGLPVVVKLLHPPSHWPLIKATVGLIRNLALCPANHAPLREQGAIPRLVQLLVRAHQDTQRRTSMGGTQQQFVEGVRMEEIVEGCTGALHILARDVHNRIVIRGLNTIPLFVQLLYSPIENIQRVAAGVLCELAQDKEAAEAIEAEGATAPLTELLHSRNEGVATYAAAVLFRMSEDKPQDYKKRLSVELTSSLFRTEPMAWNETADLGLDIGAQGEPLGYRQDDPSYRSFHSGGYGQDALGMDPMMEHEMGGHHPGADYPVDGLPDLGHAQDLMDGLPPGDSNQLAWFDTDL

full-length beta-catenin [2] = biological target: T2, full-length beta-catenin; experiment: competition FP, grade of FP EC50 (++: 100-500 nM)
Procedure, shortened: (§1)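 Compound 3-fold serially diluted from 5 µM in Tris pH 8.0, 250 mM NaCl buffer, added to premixed 15 nM full-length β-catenin and 20 nM FITC-labelled stapled axin-site peptide probe. Incubated 15 min in the dark, polarization read in duplicate.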

full-length beta-catenin [3] = biological target: T2, full-length beta-catenin; experiment: competition FP, grade of FP EC50 (+++: <=100 nM)
Procedure, shortened: as §1

full-length beta-catenin [4] = biological target: T2, full-length beta-catenin; experiment: competition FP, displacement of a labeled probe from the axin site
Experimental: In some embodiments, a competition fluorescence polarization assay is used to assess binding of provided compounds to beta-catenin. In an exemplary procedure, solutions of provided compounds, e.g., provided stapled peptides, were prepared in a buffer (e.g., 50 mM Tris pH 8.0, 250 mM NaCl, 2% glycerol, 0.5 mM EDTA, 0.02% w/v sodium azide) using a 3-fold serial dilution from 5 µM. Probe solution (15 nM full-length ß-Catenin, 20 nM FITC labeled peptide in buffer) was prepared and incubated for a period of time, e.g., 5 minutes, and the a volume, e.g., 40 µL per well plated in suitable plate, e.g., a black polystyrene 384-well plate (Corning). Equal volume of the serial diluted peptide was added to the plate and incubated protected from light for 15 minutes prior to read. Reads were performed on a Spectramax M5 (Molecular Devices) in duplicate. Suitable probe was FITC-PEG1-PQ-S5-ILD-S5-HVRRVWR (SEQ ID NO: 1) (hydrocarbon staple formed by two S5 via olefin metathesis) and/or FITC-bA-PQ-S5-ILD-S5-HVRRVWR (SEQ ID NO: 3) (hydrocarbon staple formed by two S5 via olefin metathesis). […] Another peptide, FPO217c (Ac-AR_8ILDAHIM$B5$RVW (SEQ ID NO: 280), with N-terminal proline removed and valine replaced with isoleucine compared to FP0025c) was prepared.

Molecule: Ac-PEG1-RRWPRS5ILDS5HVRRVWR (SEQ ID NO: 278) ({Ac-PEG1′}-RRWPR[S5]ILD[S5]HVRRVWR; staple 6-10) [StAx-35R, "3 amino acids were added to the N-terminus of the peptide and one other Q→R mutation was made ... the resulting peptide StAx-35R"]
- affinity compared to StAx-33 (beta-catenin): reduced

- EC50 (full-length beta-catenin [1]): ~100 nM
- FP EC50 (full-length beta-catenin [2]): 100 to 500 nM
B1: FP0787s (peptide)
peptide: Ac-PQ[S5]ILD[S5]HVRRVWR-NH2
modifications: staple 3-7
SMILES: CC[C@H](C)[C@@H]1NC(=O)[C@@](C)(NC(=O)[C@H](CCC(N)=O)NC(=O)[C@@H]2CCCN2C(C)=O)CCCC=CCCC[C@@](C)(C(=O)N[C@@H](Cc2c[nH]cn2)C(=O)N[C@H](C(=O)N[C@@H](CCCNC(=N)N)C(=O)N[C@@H](CCCNC(=N)N)C(=O)N[C@H](C(=O)N[C@@H](Cc2c[nH]c3ccccc23)C(=O)N[C@@H](CCCNC(=N)N)C(N)=O)C(C)C)C(C)C)NC(=O)[C@H](CC(=O)O)NC(=O)[C@H](CC(C)C)NC1=O
notes: also called S5/S5

- FP EC50 (full-length beta-catenin [3]): ≤ 100 nM
- EC50 (full-length beta-catenin [4]): < 100 nM
B2: FP0025c (peptide)
peptide: Ac-PA[R8]ILDAHV[MB]RVW-NH2
modifications: staple 3-10

— patent US11198713B2, “Agents modulating beta-catenin functions and methods thereof” (FOG PHARMACEUTICALS, INC., priority 2017, dated 2021)
